This test relates to HP1γ binding to H3 peptide containing K9me3 as the sole modification. Nature of the test: TRIM33 competition with HP1γ for H3 peptide, K9me3 only. As to conditions: 3-fold molar excess of TRIM33.

B1: TRIM33: Flag-tagged TRIM33 protein (protein)
chain: MAENKGGGEAESGGGGSGSAPVTAGAAGPTAQEAEPPLAAVLVEEEEEEGGRAGAEGGAAGPDDGGVAAASSSSAPAASVPAASVGSAVPGGAASTPAPAAAPAPAPAPAPAPAPAPAPAPAPGSSSGPPLGPPASLLDTCAVCQQSLQSRREAEPKLLPCLHSFCLRCLPEPERQLSVPIPGGSNGDVQQVGVIRCPVCRQECRQIDLVDNYFVKDTSEAPSSSDEKSEQVCTSCEDNASAVGFCVECGEWLCKTCIEAHQRVKFTKDHLIRKKEDVSESVGTSGQRPVFCPVHKQEQLKLFCETCDRLTCRDCQLLEHKEHRYQFLEEAFQNQKGAIENLLAKLLEKKNYVHFAATQVQNRIKEVNETNKRVEQEIKVAIFTLINEINKKGKSLLQQLENVTKERQMKLLQQQNDITGLSRQVKHVMNFTNWAIASGSSTALLYSKRLITFQLRHILKARCDPVPAANGAIRFHCDPTFWAKNVVNLGNLVIESKPAPGYTPNVVVGQVPPGTNHISKTPGQINLAQLRLQHMQQQVYAQKHQQLQQMRLQQPPAPIPTTTATTQQHPRQAAPQMLQQQPPRLISVQTMQRGNMNCGAFQAHQMRLAQNAARIPGIPRHSAPQYSMMQPHLQRQHSNPGHAGPFPVVSAHNPINPTSPTTATMANANRGPTSPSVTAIELIPSVTNPENLPSLPDIPPIQLEDAGSSSLDNLLSRYISGSHLPPQPTSTMNPSPGPSALSPGSSGLSNSHTPVRPPSTSSTGSRGSCGSSGRTAEKSAHSFKSDQVKVKQEPGTEEEICSFSGAVKQEKTEDGRRSACMLSSPESSLTPPLSTNLHLESELDTLTGLENHVKTEPTDISESCKQSGLSNLVNGKSPIRNLMHRSARIGGDGNSKDDDPNEDWCAVCQNGGDLLCCEKCPKVFHLTCHVPTLLSFPSGDWICTFCRDIGKPEVEYDCDNMQHSKKGKTAQGLSPVDQRKCERLLLYLYCHELSIEFQEPVPVSIPNYYKIIKKPMDLSTVKKKLQKKHSQHYQIPDDFVADVRLIFKNCERFNEMMKVVQVYADTQEINLKGDSEVAKAGKAVALYFEDKLSEIYSDRTFTPLPEFEQDEDDGEVTEDSDEDFIQPRRKRLKSDERPVHIK
For B1, the “competition with HP1γ” value is recorded as “ineffective at competing with HP1γ”.
